Laboratory results taken from patent US20250163164A1 (LANOVA MEDICINES DEVELOPMENT, published 2025).

B1: 61H8C1 H2L2 hIgG1 (antibody, V domains shown)
VH: QVQLVQSGAEVAKPGASVKVSCKASGYTFTSYWTQWIRQAPGQGLEGMGAIYPGDDDTSYNQKFKGRVTMTADTSTSTVYMELSSLRSEDTAVYYCARGATLLRPFPYWGQGTLVTVSS
VL: DIQMTQSPSSLSTSVGDRVTITCKASQDVSTAVAWYQQKPGKSPKLLIYSASYRYTGVPSRFSGSGSGTDFTLTISSLQPEDFATYSCQQHYSIPPTFGQGTKLEIK
notes: humanized, hIgG1
B2: 61H8C1 H1L1 hIgG1 (antibody, V domains shown)
VH: QVQLVQSGAEVKKPGASVKVSCKASGYTFTSYWTQWVRQAPGQGLEWMGAIYPGDDDTSYNQKFKGRVTMTRDTSTSTVYMELSSLRSEDTAVYYCARGATLLRPFPYWGQGTLVTVSS
VL: DIQMTQSPSSLSASVGDRVTITCKASQDVSTAVAWYQQKPGKAPKLLIYSASYRYTGVPSRFSGSGSGTDFTLTISSLQPEDFATYYCQQHYSIPPTFGQGTKLEIK
notes: humanized, hIgG1
B3: 61H8C1 H1L2 hIgG1 (antibody, V domains shown)
VH: QVQLVQSGAEVKKPGASVKVSCKASGYTFTSYWTQWVRQAPGQGLEWMGAIYPGDDDTSYNQKFKGRVTMTRDTSTSTVYMELSSLRSEDTAVYYCARGATLLRPFPYWGQGTLVTVSS
VL: DIQMTQSPSSLSTSVGDRVTITCKASQDVSTAVAWYQQKPGKSPKLLIYSASYRYTGVPSRFSGSGSGTDFTLTISSLQPEDFATYSCQQHYSIPPTFGQGTKLEIK
notes: humanized, hIgG1
B4: 61H8C1 H1L3 hIgG1 (antibody, V domains shown)
VH: QVQLVQSGAEVKKPGASVKVSCKASGYTFTSYWTQWVRQAPGQGLEWMGAIYPGDDDTSYNQKFKGRVTMTRDTSTSTVYMELSSLRSEDTAVYYCARGATLLRPFPYWGQGTLVTVSS
VL: DIQMTQSPSSLSTSVGDRVTITCKASQDVSTAVAWYQQKPGKSPKLLIYSASYRYTGVPDRFSGSGSGTDFTFTISSLQPEDFATYSCQQHYSIPPTFGGGTKLEIK
notes: humanized, hIgG1
B5: 61H8C1 H1L4 hIgG1 (antibody, V domains shown)
VH: QVQLVQSGAEVKKPGASVKVSCKASGYTFTSYWTQWVRQAPGQGLEWMGAIYPGDDDTSYNQKFKGRVTMTRDTSTSTVYMELSSLRSEDTAVYYCARGATLLRPFPYWGQGTLVTVSS
VL: DIVMTQSPSSLSTSVGDRVTITCKASQDVSTAVAWYQQKPGKSPKLLIYSASYRYTGVPDRFTGSGSGTDFTFTISSVQPEDFATYSCQQHYSIPPTFGGGTKLEIK
notes: humanized, hIgG1
B6: 61H8C1 H2L1 hIgG1 (antibody, V domains shown)
VH: QVQLVQSGAEVAKPGASVKVSCKASGYTFTSYWTQWIRQAPGQGLEGMGAIYPGDDDTSYNQKFKGRVTMTADTSTSTVYMELSSLRSEDTAVYYCARGATLLRPFPYWGQGTLVTVSS
VL: DIQMTQSPSSLSASVGDRVTITCKASQDVSTAVAWYQQKPGKAPKLLIYSASYRYTGVPSRFSGSGSGTDFTLTISSLQPEDFATYYCQQHYSIPPTFGQGTKLEIK
notes: humanized, hIgG1
B7: 61H8C1 H2L3 hIgG1 (antibody, V domains shown)
VH: QVQLVQSGAEVAKPGASVKVSCKASGYTFTSYWTQWIRQAPGQGLEGMGAIYPGDDDTSYNQKFKGRVTMTADTSTSTVYMELSSLRSEDTAVYYCARGATLLRPFPYWGQGTLVTVSS
VL: DIQMTQSPSSLSTSVGDRVTITCKASQDVSTAVAWYQQKPGKSPKLLIYSASYRYTGVPDRFSGSGSGTDFTFTISSLQPEDFATYSCQQHYSIPPTFGGGTKLEIK
notes: humanized, hIgG1
B8: 61H8C1 H2L4 hIgG1 (antibody, V domains shown)
VH: QVQLVQSGAEVAKPGASVKVSCKASGYTFTSYWTQWIRQAPGQGLEGMGAIYPGDDDTSYNQKFKGRVTMTADTSTSTVYMELSSLRSEDTAVYYCARGATLLRPFPYWGQGTLVTVSS
VL: DIVMTQSPSSLSTSVGDRVTITCKASQDVSTAVAWYQQKPGKSPKLLIYSASYRYTGVPDRFTGSGSGTDFTFTISSVQPEDFATYSCQQHYSIPPTFGGGTKLEIK
notes: humanized, hIgG1
B9: 61H8C1 H3L1 hIgG1 (antibody, V domains shown)
VH: QVQLVQSGAEVAKPGASVKVSCKASGYTFTSYWTQWIRQAPGQGLEGIGAIYPGDDDTSYNQKFKGRATLTADKSTSTVYMQLSSLRSEDTAVYYCARGATLLRPFPYWGQGTLVTVSS
VL: DIQMTQSPSSLSASVGDRVTITCKASQDVSTAVAWYQQKPGKAPKLLIYSASYRYTGVPSRFSGSGSGTDFTLTISSLQPEDFATYYCQQHYSIPPTFGQGTKLEIK
notes: humanized, hIgG1
B10: 61H8C1 H3L2 hIgG1 (antibody, V domains shown)
VH: QVQLVQSGAEVAKPGASVKVSCKASGYTFTSYWTQWIRQAPGQGLEGIGAIYPGDDDTSYNQKFKGRATLTADKSTSTVYMQLSSLRSEDTAVYYCARGATLLRPFPYWGQGTLVTVSS
VL: DIQMTQSPSSLSTSVGDRVTITCKASQDVSTAVAWYQQKPGKSPKLLIYSASYRYTGVPSRFSGSGSGTDFTLTISSLQPEDFATYSCQQHYSIPPTFGQGTKLEIK
notes: humanized, hIgG1
B11: 61H8C1 H3L3 hIgG1 (antibody, V domains shown)
VH: QVQLVQSGAEVAKPGASVKVSCKASGYTFTSYWTQWIRQAPGQGLEGIGAIYPGDDDTSYNQKFKGRATLTADKSTSTVYMQLSSLRSEDTAVYYCARGATLLRPFPYWGQGTLVTVSS
VL: DIQMTQSPSSLSTSVGDRVTITCKASQDVSTAVAWYQQKPGKSPKLLIYSASYRYTGVPDRFSGSGSGTDFTFTISSLQPEDFATYSCQQHYSIPPTFGGGTKLEIK
notes: humanized, hIgG1
B12: 61H8C1 H3L4 hIgG1 (antibody, V domains shown)
VH: QVQLVQSGAEVAKPGASVKVSCKASGYTFTSYWTQWIRQAPGQGLEGIGAIYPGDDDTSYNQKFKGRATLTADKSTSTVYMQLSSLRSEDTAVYYCARGATLLRPFPYWGQGTLVTVSS
VL: DIVMTQSPSSLSTSVGDRVTITCKASQDVSTAVAWYQQKPGKSPKLLIYSASYRYTGVPDRFTGSGSGTDFTFTISSVQPEDFATYSCQQHYSIPPTFGGGTKLEIK
notes: humanized, hIgG1
B13: 61H8C1 H4L1 hIgG1 (antibody, V domains shown)
VH: QVQLVQSGAEVAKPGASVKLSCKASGYTFTSYWTQWIKQAPGQGLEGIGAIYPGDDDTSYNQKFKGKATLTADKSTSTAYMQLSSLRSEDTAVYYCARGATLLRPFPYWGQGTLVTVSS
VL: DIQMTQSPSSLSASVGDRVTITCKASQDVSTAVAWYQQKPGKAPKLLIYSASYRYTGVPSRFSGSGSGTDFTLTISSLQPEDFATYYCQQHYSIPPTFGQGTKLEIK
notes: humanized, hIgG1
B14: 61H8C1 H4L2 hIgG1 (antibody, V domains shown)
VH: QVQLVQSGAEVAKPGASVKLSCKASGYTFTSYWTQWIKQAPGQGLEGIGAIYPGDDDTSYNQKFKGKATLTADKSTSTAYMQLSSLRSEDTAVYYCARGATLLRPFPYWGQGTLVTVSS
VL: DIQMTQSPSSLSTSVGDRVTITCKASQDVSTAVAWYQQKPGKSPKLLIYSASYRYTGVPSRFSGSGSGTDFTLTISSLQPEDFATYSCQQHYSIPPTFGQGTKLEIK
notes: humanized, hIgG1
B15: 61H8C1 H4L3 hIgG1 (antibody, V domains shown)
VH: QVQLVQSGAEVAKPGASVKLSCKASGYTFTSYWTQWIKQAPGQGLEGIGAIYPGDDDTSYNQKFKGKATLTADKSTSTAYMQLSSLRSEDTAVYYCARGATLLRPFPYWGQGTLVTVSS
VL: DIQMTQSPSSLSTSVGDRVTITCKASQDVSTAVAWYQQKPGKSPKLLIYSASYRYTGVPDRFSGSGSGTDFTFTISSLQPEDFATYSCQQHYSIPPTFGGGTKLEIK
notes: humanized, hIgG1

Each binder was assayed against T1, human interleukin 13 receptor subunit alpha 2 (IL-13RA2) (human, UniProt Q14627 27-380) (assay: FACS on A375 cells).
T1 construct: whole, on cells; also called IL-13Rα2; CD213A2
T1 sequence (looked up): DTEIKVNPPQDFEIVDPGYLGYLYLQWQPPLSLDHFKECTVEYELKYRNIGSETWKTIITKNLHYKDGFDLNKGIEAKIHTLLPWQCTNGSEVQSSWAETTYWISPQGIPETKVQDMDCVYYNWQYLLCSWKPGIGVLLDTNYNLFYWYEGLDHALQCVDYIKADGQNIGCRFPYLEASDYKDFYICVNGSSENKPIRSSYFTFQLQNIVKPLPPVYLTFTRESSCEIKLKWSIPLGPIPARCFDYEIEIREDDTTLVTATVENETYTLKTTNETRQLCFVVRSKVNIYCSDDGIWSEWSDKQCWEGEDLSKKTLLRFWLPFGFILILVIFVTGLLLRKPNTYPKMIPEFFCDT
Method: A375 cells that endogenously expressed IL-13RA2, were harvested from flasks. 100 μl of 1×10⁶ cells/ml of cells were incubated with primary humanized antibodies in 4-fold serial dilutions starting from 200 nM to 0.003 nM for 30 minutes on ice. After being washed with 200 μl of FACS buffer twice, cells were incubated with secondary antibody for 30 minutes on ice. Cells were washed with 200 μl of FACS buffer twice and analyzed by FACS.

B1 and B2 are within 1.5-fold of each other in EC50: 0.15 nM for the first, 0.14 nM for the second.

B3 and B4 are within 1.5-fold of each other in EC50: 0.15 nM for the first, 0.2 nM for the second.

B5 and B6 are within 1.5-fold of each other in EC50: 0.17 nM for the first, 0.16 nM for the second.

B7 and B8 are within 1.5-fold of each other in EC50: 0.19 nM for the first, 0.18 nM for the second.

B9 and B10 are within 1.5-fold of each other in EC50: 0.15 nM for the first, 0.17 nM for the second.

B11 and B12 are within 1.5-fold of each other in EC50: 0.15 nM for the first, 0.2 nM for the second.

B13 and B14 are within 1.5-fold of each other in EC50: 0.17 nM for the first, 0.14 nM for the second.

Binder B15 has an EC50 of 0.18 nM.

Going from B1 to B2, the “Top (MFI)” value falls from 22400 MFI to 20300 MFI.

Going from B3 to B4, the “Top (MFI)” value rises from 19600 MFI to 20000 MFI.

Going from B5 to B6, the “Top (MFI)” value rises from 19800 MFI to 22400 MFI.

Going from B7 to B8, the “Top (MFI)” value falls from 22100 MFI to 21900 MFI.

Compared with B9, B10 is higher in “Top (MFI)” value: 20600 MFI for the first, 22300 MFI for the second.

Compared with B11, B12 is higher in “Top (MFI)” value: 20100 MFI for the first, 22000 MFI for the second.

Compared with B13, B14 is lower in “Top (MFI)” value: 22200 MFI for the first, 21100 MFI for the second.

With B15 the “Top (MFI)” value was 20800 MFI.
